The values below come from paper PMC11184549.

The target in test [1] is FITC-labeled DENV2 NS5 NLS_(C-term) peptide (dengue virus serotype 2 (DENV2)). Kind of test: fluorescence polarisation.
The target in test [2] is FITC-labeled DENV3 NS5 NLS_(C-term) peptide (dengue virus serotype 3 (DENV3)). The experiment in a line: fluorescence polarisation.

Chain of human IMPα7 lacking the IMPβ-binding domain (IMPαΔIBB) (O60684 73-536, stated change not applied): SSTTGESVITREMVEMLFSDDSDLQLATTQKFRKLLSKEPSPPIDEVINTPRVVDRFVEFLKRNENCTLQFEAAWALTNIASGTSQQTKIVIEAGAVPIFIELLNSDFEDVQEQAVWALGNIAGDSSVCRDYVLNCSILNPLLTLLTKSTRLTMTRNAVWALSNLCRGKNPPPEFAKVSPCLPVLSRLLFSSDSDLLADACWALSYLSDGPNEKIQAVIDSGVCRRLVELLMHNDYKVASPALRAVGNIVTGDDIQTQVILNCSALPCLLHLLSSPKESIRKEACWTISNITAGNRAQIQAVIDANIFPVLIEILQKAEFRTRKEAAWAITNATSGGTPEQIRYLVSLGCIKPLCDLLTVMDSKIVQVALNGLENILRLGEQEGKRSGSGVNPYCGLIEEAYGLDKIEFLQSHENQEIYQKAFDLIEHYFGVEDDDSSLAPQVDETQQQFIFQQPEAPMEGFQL
Chain of human IMPα3 lacking the IMPβ-binding domain (IMPαΔIBB) (O00629 64-521, stated change not applied): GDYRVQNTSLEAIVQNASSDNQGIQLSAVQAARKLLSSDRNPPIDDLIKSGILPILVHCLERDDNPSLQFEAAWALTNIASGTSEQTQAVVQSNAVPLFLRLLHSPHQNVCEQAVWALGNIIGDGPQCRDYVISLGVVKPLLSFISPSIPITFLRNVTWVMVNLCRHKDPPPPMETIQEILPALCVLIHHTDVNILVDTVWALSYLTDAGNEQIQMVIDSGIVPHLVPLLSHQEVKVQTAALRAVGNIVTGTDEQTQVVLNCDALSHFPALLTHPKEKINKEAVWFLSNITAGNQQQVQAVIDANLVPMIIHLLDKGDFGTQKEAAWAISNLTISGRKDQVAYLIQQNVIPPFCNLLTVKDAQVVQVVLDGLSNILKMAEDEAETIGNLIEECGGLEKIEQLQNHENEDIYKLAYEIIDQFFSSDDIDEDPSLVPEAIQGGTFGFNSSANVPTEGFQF

Consider “human IMPα1 lacking the IMPβ-binding domain (IMPαΔIBB) (from UniProt P52292 70-529) (domain or fragment)”, for which the equilibrium dissociation constant (Kd) in test [1] was 90 nM; in test [2] it was 140 nM.

Turning to “human IMPα3 lacking the IMPβ-binding domain (IMPαΔIBB) (from UniProt O00629 64-521) (domain or fragment)”, the Kd in test [1] came out at 80 nM; in test [2], 150 nM.

“human IMPα7 lacking the IMPβ-binding domain (IMPαΔIBB) (from UniProt O60684 73-536) (domain or fragment)”: the Kd worked out at 180 nM in test [1] and 190 nM in test [2].
